Reference: patent publication US20230312724A1 (KADMON, published 2023)

T1: mouse B7-H4 expressed on cells (mouse, UniProt Q7TSP5 25-257)
T1 construct: also called cellular mB7-H4; mB7-H4/CT26
T1 sequence: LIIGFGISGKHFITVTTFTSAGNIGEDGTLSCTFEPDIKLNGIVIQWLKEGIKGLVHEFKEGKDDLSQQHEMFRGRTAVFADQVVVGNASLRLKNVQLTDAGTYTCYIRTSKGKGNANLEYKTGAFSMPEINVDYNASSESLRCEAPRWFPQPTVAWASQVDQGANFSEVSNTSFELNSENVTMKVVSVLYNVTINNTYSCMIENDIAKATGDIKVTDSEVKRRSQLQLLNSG

T2: mouse B7-H4-his (mouse, UniProt Q7TSP5 25-257)
T2 construct: also called mB7-H4-his; mB7-H4-His; not shown: his tag
T2 sequence: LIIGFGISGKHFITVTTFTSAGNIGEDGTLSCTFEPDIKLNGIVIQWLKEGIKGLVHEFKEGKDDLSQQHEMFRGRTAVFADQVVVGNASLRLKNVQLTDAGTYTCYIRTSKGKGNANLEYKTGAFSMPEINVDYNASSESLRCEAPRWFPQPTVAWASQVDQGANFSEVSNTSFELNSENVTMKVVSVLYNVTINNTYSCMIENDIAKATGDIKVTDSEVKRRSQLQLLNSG

T3: mB7-H4 (soluble mouse B7-H4, construct not named) (mouse, UniProt Q7TSP5 25-257, limits assumed)
T3 sequence: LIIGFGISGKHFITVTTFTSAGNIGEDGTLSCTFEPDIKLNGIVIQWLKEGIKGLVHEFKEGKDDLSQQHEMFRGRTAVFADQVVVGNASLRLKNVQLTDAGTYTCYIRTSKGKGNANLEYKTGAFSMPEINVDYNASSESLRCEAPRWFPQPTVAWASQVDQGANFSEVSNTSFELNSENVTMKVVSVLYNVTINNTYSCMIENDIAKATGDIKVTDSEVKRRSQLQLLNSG

T4: hB7-H4 (soluble human B7-H4, construct not named) (human, UniProt Q7Z7D3 25-259, limits assumed)
T4 construct: also called soluble hB7-H4
T4 sequence: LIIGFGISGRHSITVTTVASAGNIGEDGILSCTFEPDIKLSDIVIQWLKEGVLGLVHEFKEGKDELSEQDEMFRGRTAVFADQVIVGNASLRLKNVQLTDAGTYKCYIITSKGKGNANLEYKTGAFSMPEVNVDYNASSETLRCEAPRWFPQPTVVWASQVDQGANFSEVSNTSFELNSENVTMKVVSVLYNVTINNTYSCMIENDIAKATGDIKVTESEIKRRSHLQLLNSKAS

T5: human B7-H4-his (human, UniProt Q7Z7D3 25-259)
T5 construct: also called hB7-H4-his; hB7-H4 his; not shown: his tag
T5 sequence: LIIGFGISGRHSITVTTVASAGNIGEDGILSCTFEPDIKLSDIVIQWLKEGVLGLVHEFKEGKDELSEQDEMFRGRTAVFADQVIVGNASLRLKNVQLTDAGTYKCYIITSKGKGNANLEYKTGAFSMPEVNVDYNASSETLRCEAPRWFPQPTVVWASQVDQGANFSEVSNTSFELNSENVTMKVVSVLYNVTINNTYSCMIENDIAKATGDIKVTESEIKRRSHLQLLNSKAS

T6: human B7-H4 expressed on cells (human, UniProt Q7Z7D3 25-282)
T6 construct: Transfected CHO cells or tumor cell lines that carry hB7-H4; also called cellular hB7-H4
T6 sequence: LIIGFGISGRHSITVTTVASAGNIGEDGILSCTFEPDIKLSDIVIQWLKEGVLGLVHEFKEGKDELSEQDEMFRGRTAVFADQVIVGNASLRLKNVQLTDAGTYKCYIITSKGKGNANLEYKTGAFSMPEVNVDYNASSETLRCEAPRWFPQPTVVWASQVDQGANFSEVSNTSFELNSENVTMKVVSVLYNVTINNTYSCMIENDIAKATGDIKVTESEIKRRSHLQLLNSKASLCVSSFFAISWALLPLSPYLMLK


Tests used:
mouse B7-H4-Fc = biological target: T7, mouse B7-H4-Fc (mouse; human); assay: ELISA, coated mB7-H4-Fc
T7 construct: also called mB7-H4-Fc; mB7-H4-hFc
T7 sequence (chain, as listed by the source): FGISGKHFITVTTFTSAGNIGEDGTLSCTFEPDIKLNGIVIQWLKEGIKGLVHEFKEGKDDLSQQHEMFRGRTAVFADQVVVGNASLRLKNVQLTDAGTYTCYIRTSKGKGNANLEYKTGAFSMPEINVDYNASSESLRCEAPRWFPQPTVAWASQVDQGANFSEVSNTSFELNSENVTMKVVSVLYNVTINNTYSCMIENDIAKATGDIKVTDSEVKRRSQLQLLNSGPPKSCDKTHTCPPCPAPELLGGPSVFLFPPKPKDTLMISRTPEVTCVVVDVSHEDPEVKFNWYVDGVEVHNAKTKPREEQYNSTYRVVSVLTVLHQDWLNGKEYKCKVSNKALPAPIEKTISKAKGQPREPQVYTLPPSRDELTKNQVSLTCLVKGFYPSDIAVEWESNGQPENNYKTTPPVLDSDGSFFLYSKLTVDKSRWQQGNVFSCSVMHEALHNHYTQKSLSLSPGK
Description: (§1) About 1-2 μg/ml of human or mouse B7-H4-Fc (or his-tagged) was immobilized on ELISA plates (Immuno 2HB, Thermo scientific, cat #3455) at 4° C. overnight. After blocking the plates with 3% PBS+milk, serial diluted antibodies were added to the blocked plates and incubated at RT for 1-1.5 h. After washing the plates with PBS-T (0.05%), horse radish peroxidase (HRP)-conjugated antibody targeting the hFab was added to the plate. Signals were developed by adding 3,3′,5,5′-Tetramethylbenzidine (TMB (followed 1N of H₂SO₄ to stop the reaction. The OD at 450 nm was read by ELISA plate reader (Infinite M1000 from TECAN). GraphPad from Prism was used to plot OD450 vs. antibody concentration curve and to calculate the EC50 values.

[1] = biological target: T1, mouse B7-H4 expressed on cells; assay: flow cytometry, mB7-H4/CT26 cells
Description: (§2) Cells were harvested, washed once, and then re-suspended to the concentration of 1×10⁶ cells/ml in ice cold FACS Buffer. 25 μl of cell suspension was added to each well of a 96-well round-bottom microliter plate. Serially diluted antibodies or fusion proteins were added to each well and incubated for 1 hour at 4° C. Cells were washed three times by centrifugation at 1500 rpm for 5 minutes, and then stained with secondary antibody (1:200 dilution) for 30 min at 4° C. in the dark. Cells were washed once, re-suspended in 100 μl PBS buffer and then analyzed using Guava Flow Cytometry EasyCyte system.

mouse B7-H4-his = biological target: T2, mouse B7-H4-his; assay: ELISA, coated mB7-H4-his (title on the sheet: Binding to mB7H4-his)
Description: as §1

[2] = biological target: T3, mB7-H4 (soluble mouse B7-H4, construct …); assay: SPR (Biacore)
Description: (§3) Surface plasmon resonance experiments were performed using a Biacore T200 instrument equipped with CM5 sensor chips. The system was equilibrated in running buffer HBS-EP pH 7.4. The ligands were immobilized using amine-coupling chemistry. The surfaces of flow cells one through four were activated for 5 min using an amine coupling kit at a flow rate of […]. The ligands (human B7-H4-Fc, human B7-H4-hism and mouse B7-H4-Fc; at a concentration of 5 μg/ml in 10 mM sodium acetate, pH 5.0) were immobilized at a density of 50-100 RU on flow cell 2, 3, 4 respectively. Flow cell 1 was left blank to serve as a reference surface. All flow cell surfaces were blocked with a 5 min injection of 1 M ethanolamine, pH 8.0. To collect kinetic binding data, the respective analyte (diluted in 1×HBS-EP buffer, pH 7.4) was injected over the four flow cells at concentrations of 100 nM to 0.1 nM at a flow rate of […] and at a temperature of 25° C. The protein complex was allowed to associate and dissociate for 180 seconds and 1000 or 1200 seconds, respectively. The surfaces were regenerated with a 30 second injection of 1.5 M NaCl/0.05 M NaOH. The data were fit to a simple 1:1 interaction model using the Langmuir fit option available within the Biaevaluaton software

[3] = biological target: T4, hB7-H4 (soluble human B7-H4, construct …); assay: SPR (Biacore)
Description: as §3

[4] = biological target: T3, mB7-H4 (soluble mouse B7-H4, construct …); assay: ELISA, mB7-H4
Description: as §1

[5] = biological target: T4, hB7-H4 (soluble human B7-H4, construct …); assay: ELISA, hB7-H4
Description: as §1

human B7-H4-his = biological target: T5, human B7-H4-his; assay: ELISA, coated hB7-H4-his
Description: as §1

[6] = biological target: T6, human B7-H4 expressed on cells; assay: flow cytometry, SK-BR-3 cells
Description: as §2

[7] = biological target: T8, IgC domain of mouse B7-H4-Fc (mouse; human); assay: ELISA, coated mB7-H4 IgC domain
T8 construct: also called mB7-H4 IgC domain
T8 sequence (chain, as listed by the source): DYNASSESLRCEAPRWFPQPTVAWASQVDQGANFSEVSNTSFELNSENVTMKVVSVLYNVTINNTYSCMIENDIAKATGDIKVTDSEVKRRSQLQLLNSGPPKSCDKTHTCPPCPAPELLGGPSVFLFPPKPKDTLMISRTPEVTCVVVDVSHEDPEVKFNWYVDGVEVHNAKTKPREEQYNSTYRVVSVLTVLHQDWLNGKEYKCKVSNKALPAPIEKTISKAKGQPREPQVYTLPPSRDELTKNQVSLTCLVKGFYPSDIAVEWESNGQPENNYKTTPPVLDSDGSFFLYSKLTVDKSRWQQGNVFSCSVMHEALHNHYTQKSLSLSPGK

[8] = biological target: T9, IgC domain of human B7-H4-Fc (human); assay: ELISA, coated hB7-H4 IgC domain
T9 construct: also called hB7-H4 IgC domain
T9 sequence (chain, as listed by the source): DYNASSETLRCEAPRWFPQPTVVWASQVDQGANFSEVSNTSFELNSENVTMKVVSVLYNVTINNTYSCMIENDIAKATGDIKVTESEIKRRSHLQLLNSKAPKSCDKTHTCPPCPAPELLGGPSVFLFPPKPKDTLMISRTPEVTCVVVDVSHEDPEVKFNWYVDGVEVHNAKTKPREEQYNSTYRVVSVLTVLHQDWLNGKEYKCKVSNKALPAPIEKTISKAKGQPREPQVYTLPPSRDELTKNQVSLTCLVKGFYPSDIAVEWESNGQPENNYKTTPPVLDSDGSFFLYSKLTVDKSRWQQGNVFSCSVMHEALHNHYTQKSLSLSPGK

Binder | binding result (mouse B7-H4-Fc) | EC50 [1] [pM] | EC50 (read off the curve) (mouse B7-H4-his) [pM] | Kd [2] [pM] | Kd [3] [pM] | EC50 [4] [pM] | EC50 [5] [pM] | EC50 (read off the curve) (human B7-H4-his) [pM] | EC50 [6] [pM] | binding result [7] | binding result [8] | koff [2] [s⁻¹]
9D11/67C3 (antibody, human IgG1, V domains shown, 9D11 VH with 67C3 VL) VH: QVQLVQSGAEVKKPGASVKVSCKASGYTFTSYGISWVRQAPGQGLEWVGVINPNGGTTTYAQTFQGRVTMTRDTSTSTVYMELSSLRSEDTAVYYCARTGYSSGWAFDYWGRGTLVTVSS VL: not shown | binds | 28200 | ~200 | 10400 | 11400 | 86 | 112 | ~200 | 4060 | – | – | –
9D11/67E12 (antibody, human IgG1, V domains shown, 9D11 VH with 67E12 VL) VH: QVQLVQSGAEVKKPGASVKVSCKASGYTFTSYGISWVRQAPGQGLEWVGVINPNGGTTTYAQTFQGRVTMTRDTSTSTVYMELSSLRSEDTAVYYCARTGYSSGWAFDYWGRGTLVTVSS VL: not shown | binds | 16700 | ~100 | 4660 | 6300 | 110 | 203 | ~200 | 8080 | – | – | –

Now from value to binder:

binding result (mouse B7-H4-Fc) | EC50 [1] [pM] | EC50 (read off the curve) (mouse B7-H4-his) [pM] | Kd [2] [pM] | Kd [3] [pM] | EC50 [4] [pM] | EC50 [5] [pM] | EC50 (read off the curve) (human B7-H4-his) [pM] | EC50 [6] [pM] | binding result [7] | binding result [8] | koff [2] [s⁻¹] | Binder
binds | 1670 | – | 0.219 | 779 | 107 | 61 | – | 2850 | no binding (tested: log 1 nM (10 nM)) | no binding (tested: log 1 nM (10 nM)) | – | 39A11/56H7 (antibody, human IgG1, V domains shown, 39A11 VH with 56H7 VL) VH: EVQLLESGGGLVQPGGSLRLSCAASGFTFSSYGMHWVRQAPGKGLEWVASISSSSGYIYYADSVKGRFTISRDNSKNTLYLQMNSLRAEDTAVYYCARASSGMDVWGQGTTVTVSS VL: DIQMTQSPSSLSASVGDRVTITCRASQSISSYLNWYQQKPGKAPKLLIYAASNLQSGVPSRFSGSGSGTDFTLTISSLQPEDFATYYCQQYYTTPLTFGQGTKLEIK
binds | 1630 | – | 1.25 | 478 | 128 | 86 | – | 2070 | no binding (tested: log 1 nM (10 nM)) | no binding (tested: log 1 nM (10 nM)) | 6.22e-07 | 39A11/57H3 (antibody, human IgG1, V domains shown, 39A11 VH with 57H3 VL) VH: EVQLLESGGGLVQPGGSLRLSCAASGFTFSSYGMHWVRQAPGKGLEWVASISSSSGYIYYADSVKGRFTISRDNSKNTLYLQMNSLRAEDTAVYYCARASSGMDVWGQGTTVTVSS VL: DIQMTQSPSSLSASVGDRVTITCQASQDIRKYLNWYQQKPGKAPKLLIYAASTRESGVPSRFSGSGSGTDFTLTISSLQPEDFATYYCQQYYSLPLTFGQGTKLEIK
binds | 1320 | – | 1850 | 853 | 124 | 79 | – | 1310 | no binding (tested: log 1 nM (10 nM)) | no binding (tested: log 1 nM (10 nM)) | – | 39A11/62F9 (antibody, human IgG1, V domains shown, 39A11 VH with 62F9 VL) VH: EVQLLESGGGLVQPGGSLRLSCAASGFTFSSYGMHWVRQAPGKGLEWVASISSSSGYIYYADSVKGRFTISRDNSKNTLYLQMNSLRAEDTAVYYCARASSGMDVWGQGTTVTVSS VL: DIQMTQSPSSLSASVGDRVTITCRASQSVSSAVAWYQQKPGKAPKLLIYAASIRESGVPSRFSGSGSGTDFTLTISSLQPEDFATYYCQQYYSTPLTFGQGTKLEIK
